Test results reported in publication PMC5445279, “Proanthocyanidin accumulation and transcriptional responses in the seed coat of cranberry beans (Phaseolus vulgaris L.) with different susceptibility to postharvest darkening” (BMC Plant Biology, 2017).

Columns and labels:
[1] = biological target: T1, PvANR1 (Phaseolus vulgaris, UniProt A0A1V0E4B3); test: HPLC-DAD of epicatechin formation, substrate-inhibition fit; assay type: biochemical; conditions: substrate inhibition by cyanidin, product epicatechin; 800 μM NADPH, 50 mM HEPES pH 7.0, 30 °C; apparent
T1 construct: gene ANR1; full ORF (1014 bp PCR product) from seed coat cDNA, pET-30b, E. coli BL21; N-terminal His6 tag cut by enterokinase; forward primer encodes MATVKKIGK
Source text: (§1) HPLC-DAD of epicatechin formation, substrate-inhibition fit on PvANR1

[2] = substrate: Oc1cc(O)c2cc(O)c(-c3ccc(O)c(O)c3)[o+]c2c1; test: as above; assay type: biochemical, Phaseolus vulgaris; conditions: product epicatechin, 800 μM NADPH, 50 mM HEPES pH 7.0, 30 °C, apparent, substrate inhibition model
Source text: as §1

[3] = substrate: NC(=O)C1=CN([C@@H]2O[C@H](COP(=O)(O)OP(=O)(O)OC[C@H]3O[C@@H](n4cnc5c(N)ncnc54)[C@H](OP(=O)(O)O)[C@@H]3O)[C@@H](O)[C@H]2O)C=CC1; test: HPLC-DAD of epicatechin formation, Hill fit; assay type: biochemical, Phaseolus vulgaris; conditions: product epicatechin, 100 μM cyanidin, 50 mM HEPES pH 7.0, 30 °C, Hill coefficient 2.5, varied: cofactor
Source text: HPLC-DAD of epicatechin formation, Hill fit on PvANR1

Molecule | K i [1] [µM] | K0.5 [2] [µM] | Vmax [2] [µmol/min/mg] | kcat [2] [s⁻¹] | kcat/Km [2] [M⁻¹ s⁻¹] | K0.5 [3] [µM] | Vmax [3] [µmol/min/mg] | kcat [3] [s⁻¹] | kcat/Km [3] [M⁻¹ s⁻¹]
Oc1cc(O)c2cc(O)c(-c3ccc(O)c(O)c3)[o+]c2c1 [cyanidin] | 631.5 ± 119.9 | – | – | – | – | – | – | – | –
PvANR1 (Phaseolus vulgaris) (protein, full ORF (1014 bp PCR product) from seed coat cDNA, pET-30b, E. coli BL21; N-terminal His6 tag cut by enterokinase; forward primer encodes MATVKKIGK) MATVKKIGKKACVIGGSGFMASCLVKQLLHKGYAVNTTVRDPDNAKKISHLLALQSLGDLNIFGADLTGERDFDAPIAGCELVFQLATPVNFASEDPENDMIKPAISGVLNVLKACARAKGVKRVILTSSAAAVTINPVKDTGLVMDESNWTDVEFLNTAKPPTWGYPVSKALAEKAAWKFAEENHIDLITVIPTLTTGPSLTPDIPSSVGLATSLITGNDFLINALKGMQFLSGSISITHVEDICRAHIFVAENESASGRYIVSSHSTSVPELAKFLSKRYPQYKVPTEFDDCPSKAKLTISSEKLVKEGFSFKYGIEEIYDQSVEYLKSKGALKN | – | 114.2 ± 19.0 | 0.0116 | 0.0072 ± 0.0007 | 65.4 ± 13.8 | 103.5 ± 7.4 | 0.00334 | 0.0021 ± 0.0001 | 20.1 ± 0.49
